Results published in patent publication US6472178.

Tests used:
[1] = biological target: T1, rat CNTF receptor on rat superior cervical ganglia (SCG) neurons (rat, UniProt Q08406 23-342); experiment: competition with 125I-rat CNTF on rat SCG neurons
T1 construct: whole, on cells; Native neurons; also called rat receptor
T1 sequence (looked up): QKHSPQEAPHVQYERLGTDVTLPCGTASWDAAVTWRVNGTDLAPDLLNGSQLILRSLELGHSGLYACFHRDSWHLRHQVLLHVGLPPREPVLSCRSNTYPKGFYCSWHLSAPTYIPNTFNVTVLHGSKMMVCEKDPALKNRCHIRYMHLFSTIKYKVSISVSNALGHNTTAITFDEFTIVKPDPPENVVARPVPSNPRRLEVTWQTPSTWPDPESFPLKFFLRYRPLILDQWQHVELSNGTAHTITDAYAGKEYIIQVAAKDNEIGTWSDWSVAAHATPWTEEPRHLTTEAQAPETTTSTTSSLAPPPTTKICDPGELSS
Experimental: Reactions were incubated for 45 min at 0° C. followed by 15 min at room temperature and terminated by the addition of […] of 0.2 M glycine solution. After 15 min, 0.2 ml PBS containing 0.08% gelatin was also added and the mixture was passed through a Superdex-75 column (Pharmacia) to separate the labelled monomeric CNTF from dimeric and other multimeric derivatives. Percentage of incorporation was typically 20%, as determined by thin layer chromatography and the specific activity was typically around 1,000 Ci/mmole. […] Growth medium consisted of Ham's nutrient mixture F12 with 10% heat-inactivated fetal bovine serum (Hyclone), nerve growth factor (NGF) (100 ng/ml), penicillin (50 U/ml) and streptomycin (50 µg/ml). Cultures were maintained at 37° C. in a humidified 95% air/5% CO_2 atmosphere. Ganglion non-neuronal cells were eliminated by treatment with araC (10 µM) on days 1 and 3 of culture. Cultures were fed 3 times/week and were routinely used for binding assays within 2 weeks.
Binding was performed directly on cell monolayers. Cells in culture wells were washed once with assay buffer consisting of phosphate buffered saline (PBS; pH 7.4), 0.1 mM bacitracin, 1 mM PMSF, 1 µg/ml leupeptin, and 1 mg/ml BSA. […] Non-specific binding was determined in the presence of 1,000-fold excess of unlabelled CNTF. […] Data were analyzed using the […] program (ISI, Philadelphia, Pa.).

[2] = biological target: T2, human CNTF receptor α-component on MG87/CNTFR fibroblasts (human, UniProt P26992 23-342); experiment: competition with 125I-rat CNTF on MG87/CNTFR cells
T2 construct: whole, on cells; also called CNTFRα; MG87/huCNTFR
T2 sequence (looked up): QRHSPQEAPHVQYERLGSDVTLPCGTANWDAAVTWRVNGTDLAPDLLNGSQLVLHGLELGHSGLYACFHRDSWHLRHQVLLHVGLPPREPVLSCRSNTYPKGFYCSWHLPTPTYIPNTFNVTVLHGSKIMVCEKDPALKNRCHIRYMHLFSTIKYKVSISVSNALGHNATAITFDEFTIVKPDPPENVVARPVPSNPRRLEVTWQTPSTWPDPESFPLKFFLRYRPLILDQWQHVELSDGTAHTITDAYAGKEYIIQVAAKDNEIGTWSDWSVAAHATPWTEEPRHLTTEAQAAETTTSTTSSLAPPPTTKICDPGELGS

IC50 [1]: 0.28 nM
IC50 [2]: 2.8 nM
B1: recombinant rat CNTF (ciliary neurotrophic factor) (ligand)
chain: MAFAEQTPLTLHRRDLCSRSIWLARKIRSDLTALMESYVKHQGLNKNINLDSVDGVPVASTDRWSEMTEAELRQENLQAYRTFQGMLTKLLEDQRVHFTPTEGDFHQAIHTLMLQVSAFAYQLEELMVLLEQKIPENEADGMPATVGDGGLFEKKLWGLKVLQELSQWTVRSIHDLRVISSHQMGISALESHYGAKDKQM
notes: also called unlabelled rat CNTF
